Reference: PMC4753521
One block for each substance: values may come before it.

Legend:
[1] = biological target: TFIIH p62 PH (Homo sapiens) (UniProt P32780); experiment: ITC; details: cited from earlier work
[2] = biological target: TFIIH p62 PH (Homo sapiens) (UniProt P32780); experiment: ITC; details: cited from earlier work; remark: listed apart in the source
[3] = biological target: TFIIH p62 PH (Homo sapiens) (UniProt P32780); experiment: ITC; details: cited from earlier work; remark: listed apart in the source
[4] = biological target: TFIIH p62 subunit PH domain, 1-108 (UniProt P32780); experiment: real-time NMR of complex during JNK2α2 reaction; details: reference: Thr55-phosphorylated complex before JNK2α2; sites S46
[5] = biological target: TFIIH p62 subunit PH domain, 1-108 (UniProt P32780); experiment: real-time NMR of complex during GRK5 reaction; details: reference: complex before GRK5 addition; sites T55
[6] = biological target: TFIIH p62 subunit PH domain, 1-108 (UniProt P32780); experiment: real-time NMR of complex during CK2 reaction; details: reference: complex before CK2 addition; sites S129

Substance: p53 TAD2 (from UniProt P04637)
Kd [1]: 6 µM
Kd [2]: 5 µM
Kd [3]: 1000 nM

binding against the reference [4]: stronger
Substance: p53 TAD, 1-73 (from UniProt P04637) same complex after JNK2α2 reaction

binding against the reference [5]: stronger
Substance: p53 TAD, 1-73 (from UniProt P04637) complex after GRK5 reaction

binding against the reference [6]: stronger
Substance: XPC AF, 109-156 (from UniProt Q01831) complex after CK2 reaction
